Reference: patent EP4722231A1 (Shanxi Jinbo Bio-Pharmaceutical Co., Ltd., dated 2025)

How the values were obtained:
Experiment in all cases: cell-based or functional assay
[1] = target: SARS-CoV-2 EG.5 S protein (SARS-CoV-2 (EG.5 variant))
[2] = target: SARS-CoV-2 Omicron BA.2 S protein (SARS-CoV-2 (BA.2 variant))
[3] = target: SARS-CoV-2 BA.2.75 S protein (SARS-CoV-2 (BA.2.75 variant))
[4] = target: SARS-CoV-2 XBB.1.5 S protein (SARS-CoV-2 (XBB.1.5 variant))
[5] = target: SARS-CoV-2 BA.2.86 S protein (SARS-CoV-2 (BA.2.86 variant))

Binder | Inhibitory activity, IC50 (nM), pseudovirus infection of Caco2 cells (luciferase) [1] [nM] | Inhibitory activity, IC50 (nM), pseudovirus infection of Caco2 cells (luciferase) [2] [nM] | Inhibitory activity, IC50 (nM), pseudovirus infection of Caco2 cells (luciferase) [3] [nM] | Inhibitory activity, IC50 (nM), pseudovirus infection of Caco2 cells (luciferase) [4] [nM] | Inhibitory activity, IC50 (nM), pseudovirus infection of Caco2 cells (luciferase) [5] [nM]
Ac-SLDQINVTFLDLEYEMKKLEEAIKKLEESYIDLKEL-NH2 [chemically synthesized polypeptide EK1] | 401 | 228 | 438 | 291 | 392
SLDQINVTFLDLEYEMKKLEEAIKKLEESYIDLKEL [prokaryote-expressed polypeptide reEK1 (recombinant polypeptide HCoV-EK1, TEKB)] | 331 | 354 | 420 | 137 | 298
